According to patent US20120295975A1 (University of California, published 2012):

T1: transforming growth factor-β activated kinase 1 (TAK1), endogenous, RAW 264.7 cells (mouse, UniProt Q62073 1-579)
T1 construct: Endogenous protein in cell lysate
T1 sequence (looked up): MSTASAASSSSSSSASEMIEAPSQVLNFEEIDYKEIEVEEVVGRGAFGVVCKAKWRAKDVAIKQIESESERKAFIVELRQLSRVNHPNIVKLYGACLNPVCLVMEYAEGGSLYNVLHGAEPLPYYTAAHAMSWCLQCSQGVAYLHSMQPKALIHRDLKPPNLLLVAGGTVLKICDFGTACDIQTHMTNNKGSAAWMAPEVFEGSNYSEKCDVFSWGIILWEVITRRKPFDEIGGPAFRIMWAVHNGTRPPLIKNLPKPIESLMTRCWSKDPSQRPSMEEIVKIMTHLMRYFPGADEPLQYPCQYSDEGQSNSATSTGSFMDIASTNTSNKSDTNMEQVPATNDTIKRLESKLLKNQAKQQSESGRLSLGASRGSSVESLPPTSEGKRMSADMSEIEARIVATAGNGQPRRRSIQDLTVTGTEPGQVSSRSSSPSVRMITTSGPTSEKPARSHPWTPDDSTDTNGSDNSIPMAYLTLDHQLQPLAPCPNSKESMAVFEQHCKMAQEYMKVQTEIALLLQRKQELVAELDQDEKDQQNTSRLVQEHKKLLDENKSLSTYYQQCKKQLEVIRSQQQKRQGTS


Assays:
[1] = biological target: T2, β-arrestin2 (endogenous, RAW 264.7 cells) (mouse, UniProt Q91YI4 1-410); test: co-IP, RAW 264.7 cells, DHA 30 min (FIG. 3E)
T2 construct: Endogenous protein in cell lysate; also called βarr2
Protocol: (§1) FIG. 3. GPR120 internalization with β-arrestin2 mediates anti-inflammatory effects. (A) RAW 264.7 cells were transfected with siRNA as indicated and stimulated with or without 100 μM of DHA 1 hr prior to LPS (100 ng/ml) treatment for 10 min and then subjected to western blotting. […] (C) Phosphorylation of TAK1 and MKK4 in RAW 264.7 cells with or without siRNA transfection as indicated. (D) HEK 293 cells were co-transfected with HA-GPR120 and β-arrestin2.GFP to analyze GPR120 internalization after DHA stimulation for the indicated times. GPR120 (left column) and β-arrestin2 (middle column) were localized by confocal microscopy. (E) Co-immunoprecipitation between GPR120 and β-arrestin2 with DHA stimulation for 30 min in RAW 264.7 cells and, (F) HEK 293 cells (HA-GPR120 and (β-arrestin2*GFP), respectively. Lysate indicates 1/10 input in each experiment. Interaction between TAB1 and β-arrestin2 (G), and interaction between TAB1 and TAK1 (H) were detected by co-immunoprecipitation and the scanned bar graph quantitates the association in RAW 264.7 cells. (I) Schematic diagram of the β-arrestin2 and GPR120-mediated anti-inflammatory mechanism. The left half of the diagram indicate the DHA-mediated anti-inflammatory effect, and the right half of the diagram indicate the LPS- and TNF-α-induced inflammatory pathway. See also FIG. 9. […]

[2] = biological target: T1, transforming growth factor-β activated …; test: co-IP, RAW 264.7 cells (FIG. 3H)
Protocol: as §1

T2 sequence (Q91YI4 whole entry): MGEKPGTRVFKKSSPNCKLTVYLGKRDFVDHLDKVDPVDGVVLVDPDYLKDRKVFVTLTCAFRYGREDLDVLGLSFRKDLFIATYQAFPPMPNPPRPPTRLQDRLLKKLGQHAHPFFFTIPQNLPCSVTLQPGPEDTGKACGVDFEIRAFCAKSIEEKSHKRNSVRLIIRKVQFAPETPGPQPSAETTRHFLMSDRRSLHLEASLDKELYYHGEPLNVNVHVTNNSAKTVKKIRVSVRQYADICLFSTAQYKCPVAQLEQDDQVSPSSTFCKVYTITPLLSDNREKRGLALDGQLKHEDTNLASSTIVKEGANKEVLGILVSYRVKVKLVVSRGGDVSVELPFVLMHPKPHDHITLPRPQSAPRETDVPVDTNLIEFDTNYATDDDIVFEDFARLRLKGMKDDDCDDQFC

Row | Binder | binding result [1] | binding result [2]
1 | GPR120 (endogenous, RAW 264.7 cells) (receptor, mouse, UniProt Q7TMA4 1-361, looked up, whole, on cells; also called ω-3 FA receptor/sensor) MSPECAQTTGPGPSHTLDQVNRTHFPFFSDVKGDHRLVLSVVETTVLGLIFVVSLLGNVCALVLVARRRRRGATASLVLNLFCADLLFTSAIPLVLVVRWTEAWLLGPVVCHLLFYVMTMSGSVTILTLAAVSLERMVCIVRLRRGLSGPGRRTQAALLAFIWGYSALAALPLCILFRVVPQRLPGGDQEIPICTLDWPNRIGEISWDVFFVTLNFLVPGLVIVISYSKILQITKASRKRLTLSLAYSESHQIRVSQQDYRLFRTLFLLMVSFFIMWSPIIITILLILIQNFRQDLVIWPSLFFWVVAFTFANSALNPILYNMSLFRNEWRKIFCCFFFPEKGAIFTDTSVRRNDLSVISS | binds | 
2 | TAK1 binding protein 1 (TAB1), endogenous, RAW 264.7 cells (other, mouse, UniProt Q8CF89 1-502, looked up, Endogenous protein in cell lysate) MAAQRRSLLQSEQQPSWTDDLPLCHLSGVGSASNRSYSADGKGTESHPPEDNWLKFRSENNCFLYGVFNGYDGNRVTNFVAQRLSAELLLGQLNTEHTEADVRRVLLQAFDVVERSFLESIDDALAEKASLQSQLPEGVPQHQLPPQYQKILERLKALEREISGGAMAVVAVLLNSKLYVANVGTNRALLCKSTVDGLQVTQLNMDHTTENEDELFRLSQLGLDAGKIKQMGVICGQESTRRIGDYKVKYGYTDIDLLSAAKSKPIIAEPEIHGAQPLDGVTGFLVLMSEGLYKALEAAHGPGQANQEIAAMIDTEFAKQTSLDAVAQAVVDRVKRIHSDTFASGGERAKFCPRHEDMTLLVRNFGYPLGEMSQPTPTPAPGGRVYPVSVPYSSAQSTSKTSVTLSLVMPSQGQMVNGSHSASTLDEATPTLTNQSPTLTLQSTNTHTQSSSSSSDGGLFRSRPAHSLPPGEDGRVEPYVDFAEFYRLWSVDHGEQSVMTAP |  | binds
